Laboratory results taken from paper PMC11931385, “Structural and functional analysis of cancer-associated missense variants in the retinoblastoma protein pocket domain” (The Journal of Biological Chemistry, 2025).
No end group written: not given here. TMR = tetramethyl rhodamine dye

T1: Rb^P H686Y (human, UniProt P06400 380-788, H686Y)
T1 construct: also called variant 58
T1 sequence (looked up): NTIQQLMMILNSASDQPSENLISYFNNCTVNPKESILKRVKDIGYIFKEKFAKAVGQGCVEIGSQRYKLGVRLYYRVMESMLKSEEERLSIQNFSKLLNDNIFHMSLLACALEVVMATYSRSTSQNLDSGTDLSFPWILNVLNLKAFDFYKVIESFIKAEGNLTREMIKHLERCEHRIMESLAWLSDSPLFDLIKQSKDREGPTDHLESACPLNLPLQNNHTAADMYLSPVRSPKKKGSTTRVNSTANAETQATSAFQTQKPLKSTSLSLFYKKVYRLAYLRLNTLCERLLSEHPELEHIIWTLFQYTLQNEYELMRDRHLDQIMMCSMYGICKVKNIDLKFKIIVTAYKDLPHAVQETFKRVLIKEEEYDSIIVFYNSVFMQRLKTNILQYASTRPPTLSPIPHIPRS

T2: Rb^P M761L (human, UniProt P06400 380-788, M761L)
T2 construct: also called variant 74
T2 sequence (looked up): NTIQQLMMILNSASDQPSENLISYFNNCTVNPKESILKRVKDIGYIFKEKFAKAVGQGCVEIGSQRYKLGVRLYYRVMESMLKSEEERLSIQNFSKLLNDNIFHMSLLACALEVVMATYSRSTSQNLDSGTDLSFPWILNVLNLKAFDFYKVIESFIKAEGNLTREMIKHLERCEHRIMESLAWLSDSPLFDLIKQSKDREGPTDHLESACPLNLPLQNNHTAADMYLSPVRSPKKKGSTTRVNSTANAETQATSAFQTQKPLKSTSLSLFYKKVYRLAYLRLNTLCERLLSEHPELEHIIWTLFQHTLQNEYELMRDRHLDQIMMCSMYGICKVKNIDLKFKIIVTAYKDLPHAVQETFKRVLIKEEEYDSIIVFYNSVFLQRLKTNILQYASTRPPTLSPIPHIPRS

T3: Rb^P T687I (human, UniProt P06400 380-788, T687I)
T3 construct: also called variant 59
T3 sequence (looked up): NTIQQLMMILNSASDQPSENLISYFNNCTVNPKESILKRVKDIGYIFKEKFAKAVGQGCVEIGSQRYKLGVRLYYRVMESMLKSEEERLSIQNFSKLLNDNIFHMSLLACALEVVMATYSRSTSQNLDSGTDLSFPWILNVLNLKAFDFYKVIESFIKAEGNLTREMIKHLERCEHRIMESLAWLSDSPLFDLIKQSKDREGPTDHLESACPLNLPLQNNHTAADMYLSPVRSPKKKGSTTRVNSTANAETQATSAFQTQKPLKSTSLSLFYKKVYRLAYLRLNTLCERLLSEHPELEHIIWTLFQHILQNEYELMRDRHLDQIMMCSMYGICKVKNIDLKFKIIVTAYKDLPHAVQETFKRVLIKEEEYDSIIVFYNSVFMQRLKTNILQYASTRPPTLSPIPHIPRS

T4: Rb^P E492Q (human, UniProt P06400 380-788, E492Q)
T4 construct: also called variant 18
T4 sequence (looked up): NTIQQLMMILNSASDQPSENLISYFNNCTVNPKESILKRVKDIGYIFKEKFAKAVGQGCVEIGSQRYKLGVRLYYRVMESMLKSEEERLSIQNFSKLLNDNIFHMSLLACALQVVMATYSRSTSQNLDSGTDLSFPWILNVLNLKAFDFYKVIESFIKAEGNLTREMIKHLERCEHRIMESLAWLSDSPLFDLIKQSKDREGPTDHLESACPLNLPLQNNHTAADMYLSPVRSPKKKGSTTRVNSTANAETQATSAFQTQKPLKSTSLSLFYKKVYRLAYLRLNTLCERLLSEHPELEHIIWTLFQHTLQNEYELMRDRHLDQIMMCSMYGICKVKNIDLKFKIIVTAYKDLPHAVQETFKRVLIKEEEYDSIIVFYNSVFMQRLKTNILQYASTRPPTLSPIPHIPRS

T5: Rb^P I679F (human, UniProt P06400 380-788, I679F)
T5 construct: also called variant 57
T5 sequence (looked up): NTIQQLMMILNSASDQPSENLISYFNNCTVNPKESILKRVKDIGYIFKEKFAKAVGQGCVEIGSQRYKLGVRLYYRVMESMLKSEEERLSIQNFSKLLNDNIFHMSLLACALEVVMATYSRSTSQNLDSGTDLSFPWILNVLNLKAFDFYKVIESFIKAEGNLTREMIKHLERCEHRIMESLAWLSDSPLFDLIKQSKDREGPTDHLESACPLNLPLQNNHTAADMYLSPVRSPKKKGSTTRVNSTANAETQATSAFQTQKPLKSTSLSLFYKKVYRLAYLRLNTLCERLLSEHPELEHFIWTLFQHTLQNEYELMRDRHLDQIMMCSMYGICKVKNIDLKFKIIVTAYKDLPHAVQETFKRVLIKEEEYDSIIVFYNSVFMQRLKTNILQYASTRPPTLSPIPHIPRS

B1: TMR-E2F1^TD, peptide of the E2F1 transactivation domain (peptide)
peptide: {TMR}-GEGIRDLFDCDFGDLTPLD
notes: also called E2F^TD; source: synthetic peptide, bought: GenScript
B2: TMR-E7^LxCxE, LxCxE peptide of the E7 oncoprotein from HPV (peptide)
peptide: DLYCYEQLN
modifications: also: TMR label, position not given here
notes: source: synthetic peptide, bought: GenScript

Columns and labels:
Assay in all cases: fluorescence polarisation; 25 °C; unlabeled Rb^P titrated against 1.5 nM TMR-E2F1^TD or 7.5 nM TMR-E7^LxCxE; 25 mM Tris pH 8.0, 200 mM NaCl, 1 mM DTT, 0.1% Tween-20; 2 min incubation; quadratic fit; apparent Kd for the variants, Kd for WT
Details in all cases: both partners purified
[1] = molecular target: T1, Rb^P H686Y
[2] = molecular target: T2, Rb^P M761L
[3] = molecular target: T3, Rb^P T687I
[4] = molecular target: T4, Rb^P E492Q
[5] = molecular target: T5, Rb^P I679F

Row | Binder | Kd [1] [nM] | Kd [2] [nM] | Kd [3] [nM] | Kd [4] [nM] | Kd [5] [nM]
1 | B1 | 20 | 32 | 20 | 22 | 17
2 | B2 | 5 | 1.3 | 13 | 14 | 11
